Square brackets hold non-standard residues; d marks the D form. Ends that are not written are not given here. dPhe(4-NO2) = N[C@H](Cc1ccc([N+](=O)[O-])cc1)C(=O)O; dPhe(F5) = N[C@H](Cc1c(F)c(F)c(F)c(F)c1F)C(=O)O; dBpa = N[C@H](Cc1ccc(C(=O)c2ccccc2)cc1)C(=O)O; dCha = N[C@H](CC1CCCCC1)C(=O)O
T1: baculovirus derived recombinant human full length Chk1 with histidine tag (human, UniProt O14757 1-476)
T1 sequence: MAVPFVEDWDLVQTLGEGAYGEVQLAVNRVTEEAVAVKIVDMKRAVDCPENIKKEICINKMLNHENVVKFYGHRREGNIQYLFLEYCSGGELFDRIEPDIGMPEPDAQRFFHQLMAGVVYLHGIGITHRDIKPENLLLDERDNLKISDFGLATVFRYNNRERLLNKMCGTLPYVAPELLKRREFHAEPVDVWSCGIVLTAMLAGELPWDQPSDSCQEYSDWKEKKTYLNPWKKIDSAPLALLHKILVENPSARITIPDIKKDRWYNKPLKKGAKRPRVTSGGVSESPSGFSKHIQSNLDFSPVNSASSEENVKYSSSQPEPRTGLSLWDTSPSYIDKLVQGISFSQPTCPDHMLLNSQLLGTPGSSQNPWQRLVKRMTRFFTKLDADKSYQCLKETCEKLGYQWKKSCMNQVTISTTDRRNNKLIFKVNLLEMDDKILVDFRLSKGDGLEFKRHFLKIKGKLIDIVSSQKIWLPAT


Assays:
Assay in all cases: cell-based or functional assay
PKA = molecular target: PKA
purified CHK2 kinase = molecular target: purified CHK2 kinase
[1] = molecular target: T1, baculovirus derived recombinant human …
[2] = molecular target: E. Coli derived recombinant human full length Chk2 fused with GST (human, UniProt O96017 1-543)
Chain of E. Coli derived recombinant human full length Chk2 fused with GST (O96017 whole entry, the tested form may be a part): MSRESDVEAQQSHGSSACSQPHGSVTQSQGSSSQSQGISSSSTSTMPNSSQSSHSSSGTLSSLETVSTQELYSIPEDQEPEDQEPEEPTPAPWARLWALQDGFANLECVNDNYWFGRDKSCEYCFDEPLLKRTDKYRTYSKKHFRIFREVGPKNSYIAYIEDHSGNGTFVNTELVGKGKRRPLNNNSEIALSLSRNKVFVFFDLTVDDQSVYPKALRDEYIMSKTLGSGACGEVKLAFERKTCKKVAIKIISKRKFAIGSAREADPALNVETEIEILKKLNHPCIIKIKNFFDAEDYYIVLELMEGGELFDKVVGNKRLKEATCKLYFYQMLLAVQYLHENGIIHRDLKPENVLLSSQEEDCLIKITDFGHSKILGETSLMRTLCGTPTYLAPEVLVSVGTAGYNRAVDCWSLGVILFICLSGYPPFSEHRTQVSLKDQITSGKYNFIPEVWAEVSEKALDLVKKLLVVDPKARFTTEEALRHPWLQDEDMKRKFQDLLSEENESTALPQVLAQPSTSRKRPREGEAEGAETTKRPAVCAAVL

Binder	IC50, kinase inhibition (PepTag Non-Radioactive Protein Kinase Assay) (PKA) [µM]	IC50, kinase inhibition (PepTag Non-Radioactive Protein Kinase Assay) (purified CHK2 kinase) [µM]	Kinase inhibition (phosphorylation of serine 216 on GST-Cdc25C 167-267, enzyme linked immune assay) [1]	Kinase inhibition (phosphorylation of serine 216 on GST-Cdc25C 167-267, enzyme linked immune assay) [2]
[dY][dY][dS]G[dS][dR][dPhe(F5)][dCha][dR][dR][dR][dQ][dR][dR][dK][dK][dR]G[dY] [CBP450]	> 400	10	–	–
[dBpa][dD][dS][dW][dS][dPhe(F5)][dCha][dR][dR][dR][dQ][dR][dR] [CBP505]	–	–	63.4	> 100
YGRKKRRQRRRXFXYY ((l-Tyr)(l-Gly)(l-Arg)(l-Lys)(l-Lys)(l-Arg)(l-Arg)(l-Gln)(l-Arg)(l-Arg)(l-Arg)(l-Cha)(l-Phe-2,3,4,5,6-F)(l-aminoundecanoic acid)(l-Tyr)(l-Tyr): Cha = cyclohexyl-alanine; Phe-2,3,4,5,6-F = pentafluoro-phenylalanine; aminoundecanoic acid spacer) [CBP440]	180	8	–	–
[dBpa][dS][dW][dS][dPhe(4-NO2)][dCha][dR][dR][dR][dQ][dR][dR] [CBP603]	–	–	15.5	18.1
[dY][dBpa][dS][dW][dS][dPhe(F5)][dCha][dR][dR][dR][dQ][dR][dR] [CBP500]	–	–	5.6	8
[dBpa][dS][dW][dS][dPhe(F5)][dCha][dR][dR][dR][dQ][dR][dR] [CBP501]	–	–	7.9	18.6
